Experiment [1] has as its target T1, CLDN6 endogenously expressed by human cancer cell lines (ARK2, OVCA429) (human, UniProt P56747 1-220).
T1 construct: Untagged endogenous protein; also called Endogenous CLDN6+
T1 sequence: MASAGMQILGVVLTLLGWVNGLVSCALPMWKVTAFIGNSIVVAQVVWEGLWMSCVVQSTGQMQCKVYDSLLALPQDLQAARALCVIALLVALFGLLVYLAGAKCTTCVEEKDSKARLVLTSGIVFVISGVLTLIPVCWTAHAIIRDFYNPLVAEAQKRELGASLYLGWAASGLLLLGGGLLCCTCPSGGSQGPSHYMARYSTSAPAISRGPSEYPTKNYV
Put plainly: FACS, AF647-labelled mAb, ARK2 cells. Here is the method: (§1) Antibodies were purified and cell surface binding of the antibodies to CLDN6 and the antibody IC₅₀ were determined by FACS in which CLDN6 antibodies were directly conjugated with Alexa Fluor® 647 NHS Ester (Succinimidyl Ester), Cat #A20106 (ThermoFisher Scientific) following the manufacturer's protocol. CLDN6 antibodies were tested from 0.32 nM to 1000 nM (serial dilution 1:5, 6 points) in a 50 μl volume with 150,000 cells system.
(§2) CLDN6-expressing cells were used in FACS assays to determine the CLDN6 antibody's ability to bind to CLDN6 on the surface of cells and to cross-react with other CLDN family members. HEK293 T cells engineered to express human CLDN6 fused to GFP, mouse CLDN6 fused to GFP, CLDN9-GFP, CLDN4-GFP, or CLDN3-GFP, or GFP alone (without CLDN6) were used as artificial models of CLDN6 expression. ARK2, OVCA429, LS513 and MCF7 cells were used as endogenous models of CLDN6 expression, as well as models for CLDN3/4 expression.
(§3) For each type of cell tested and for each mAb, cells were detached from the surface of the culture flasks by EDTA (instead of trypsin) in order to protect the cell surface proteins. The detached cells were then incubated with Alexa Fluor®-labeled CLDN6 mAbs for 30 min in the dark on ice at a pre-determined concentration. The CLDN6 mAbs were directly labeled with Alexa Fluor® 647 NHS Ester (Succinimidyl Ester). After washing, the cells were read by a BD Accuri™ Flow Cytometer C6 to detect antibody-antigen protein binding in channel FL4H. Each antibody was tested at varied concentrations to establish a dose-fluorescence curve. The EC50/IC50 of the antibodies (the concentration of the antibody at which half the max value were calculated based on the values of FL4H (gated in viable singlet cells) using the Very Simple IC50 Tool kit available online which allows biological dose-response data to be plotted and fitted to curve types to give the EC50/IC50. The max value was the lowest concentration of the antibody at which fluorescence maxes out. The antibodies were also screened for their ability to cross-react with other CLDN proteins such as CLDN9, CLDN3, and CLDN4. These values were used to determine each antibody's relative affinity among the set of antibodies tested. Cross-reactivity data were obtained using a similar methodology, but with cells having a different expression profile for CLDN6, CLDN3, CLDN4 and CLDN9.

For experiment [2], the target named is T1, CLDN6 endogenously expressed by human …. Put plainly: FACS, AF647-labelled mAb, OVCA429 cells. Here is the method:
as §1, §2, §3

In experiment [3] the target is T2, human CLDN6 fused to GFP, expressed on engineered HEK293T cells (HEK293T-CLDN6-mGFP) (human, UniProt P56747 1-220).
T2 construct: It calls residues 1-21 a signal peptide; also called Claudin-6; HEK293T-CLDN6-mGFP Artificial CLDN6+; not shown: mGFP tag
T2 sequence: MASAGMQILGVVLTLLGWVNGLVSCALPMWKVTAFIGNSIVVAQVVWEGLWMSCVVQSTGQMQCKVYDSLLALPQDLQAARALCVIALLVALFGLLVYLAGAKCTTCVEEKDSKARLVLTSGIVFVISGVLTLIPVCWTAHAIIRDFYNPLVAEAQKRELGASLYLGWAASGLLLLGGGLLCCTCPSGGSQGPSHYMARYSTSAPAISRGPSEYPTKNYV
Put plainly: FACS, AF647-labelled mAb, HEK293T-CLDN6-mGFP cells. On the procedure:
as §1, §2, §3

Experiment [4] addresses T2, human CLDN6 fused to GFP, expressed on …. Put plainly: FACS, 1.5 µg Ab, 293T clone with human CLDN6. The procedure, abridged:
(§4)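 Engineered 293T clones expressing human CLDN6 were detached with EDTA and incubated with Alexa Fluor 647 NHS ester-labelled humanized antibody, at 0.3 µg or 1.5 µg, for 30 min on ice in the dark. After washing, the cells were read by flow cytometry on a BD Accuri C6 in channel FL4H. Fluorescence in this direct-binding assay reflects relative antigen binding strength.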

Experiment [5] addresses T1, CLDN6 endogenously expressed by human …. Put plainly: FACS, 0.3 µg Ab, ARK2 cells. On the procedure:
(§5) FACS assays were also carried out to determine relative antigen binding strengths of the humanized antibodies (at either 1.5 μg or 0.3 μg) for binding to CLDN6 as expressed by the indicated cancer cell lines. 2nd Ab only was used as a negative control.

Experiment [6] has as its target T3, mouse CLDN6 fused to GFP, expressed on engineered HEK293T cells (mouse, UniProt Q9Z262 1-219).
T3 construct: whole, on cells; also called HEK293T-CLDN6-mGFP Artificial CLDN6+ (mouse); murine CLDN6; not shown: GFP tag
T3 sequence (looked up): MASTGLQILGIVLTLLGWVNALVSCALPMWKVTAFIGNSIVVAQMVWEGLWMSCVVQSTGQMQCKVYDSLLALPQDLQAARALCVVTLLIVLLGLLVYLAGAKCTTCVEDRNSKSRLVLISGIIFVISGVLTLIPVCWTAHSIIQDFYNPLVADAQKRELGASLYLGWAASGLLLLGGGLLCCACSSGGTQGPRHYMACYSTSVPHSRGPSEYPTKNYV
Put plainly: FACS, 293T clone with mouse CLDN6, dose not given. Here is the method: Humanized antibodies described in Table 8 were constructed and expressed as essentially described in Example 5. FACS assays were carried out as essentially described in Example 5 to determine relative antigen binding strengths of the humanized antibodies. Two doses (1.5 μg or 0.3 μg) of the humanized antibodies were tested for binding to either human CLDN6 or murine CLDN6 which proteins were expressed by engineered 293T clones.

The target of experiment [7] is T2, human CLDN6 fused to GFP, expressed on …. Put plainly: FACS, 0.3 µg Ab, 293T clone with human CLDN6. The method in brief: as §4
For experiment [8], the target named is T1, CLDN6 endogenously expressed by human …. Put plainly: FACS, 1.5 µg Ab, ARK2 cells. Here is the method:
as §5

For experiment [9] the target is unchanged. Put plainly: FACS, 1.5 µg Ab, OVCA429 cells.

B1: AB9 (antibody, V domains shown)
VH: EVQLQQSGPELVKPGASVKMSCKASGYRFTDYNMHWVKQSHGKSLEWIGYINPNNGGTNYNQNFKGKATLTVNKSSSTAYMELRSLTSEDSAAYYCARDYLYFFDCWGQGTTLTVSS
VL: DIQMTQSPASQSASLGESVTITCLASQTIGTWLAWYQQKPGKSPQLLIYAAASLADGVPSRFSGSGSGTRFSFKISSLQAEDFVSYYCQQLYSIPRTFGGGTKLEIK
notes: Labelled with Alexa Fluor 647 NHS ester for FACS
Regarding B1, the EC50 in experiment [1] is 1140 nM; in [2] it was 1160 nM; in [3] it was 2670 nM.

B2: AB11 (antibody, V domains shown)
VH: DVQLVESGGGLVQPRGSRKLSCAASGFTFSSFGMHWVRQAPEKGLEWVAYISSDSRTIYYADTVKGRFTISRDNPTNTLFLQMTSLRSEDTAMYYCARDYGRTYEAYWGQGTLVTVSA
VL: DIVLTQSPASLAVSLGQRATISCRASKSVSTSGYSYIHWYQQKPGQPPKLLIYLASNLESGVPARFSGSGSGTDFTLNIHPVEEEDAATYYCQHSRELPLTFGAGTKLELK
notes: as for B1
Take B2: the concentration for a half-maximal effect (EC50) was determined as 363 nM in experiment [1], 835 nM in experiment [2] and 1700 nM in experiment [3].

B3: AB10 (antibody, V domains shown)
VH: QIQLVQSGPALKKPGETVKISCKASGYTFTDYSMHWIKQAPGKGLKWMGWISTETGEPTYADGFKGRFDFSLETSADTAYLSINNLTNEDTATYFCTRGLWSSFAYWGQGTLVTVSA
VL: DVVMTQTPLSLPVSLGDQASISCRASQSLVHSNGNTYLHWFLQKPGQSPKLLIYKVSNRFSGVPDRFSGSGSRTDFTLKISRVEAEDLGVYFCSQITHVPYTFGGGTKLEIK
notes: as for B1
Consider B3, for which the figures for the concentration giving a half-maximal response (EC50) in experiment [1], in [2] and in experiment [3] were 2140 nM, 2470 nM and 2760 nM, respectively.

B4: AB4-chim (antibody, V domains shown)
VH: QVQLQQSGAELARPGASVKMSCKASGYTFTSYTMHWIKQRPGQGQEWIGYINPSSTYTHYIKKFKDKATLTADKSSSTAYMQLRSLTSEDSAVYYCSRGELGGFAYWGQGTLVTVSA
VL: DVVMTQTPLSLPVSLGDQASISCRSSQSLVHSDGNTYLNWYLQKPGQSPKLLIYKVSNRFSGVPDRFSGSGSGTDFTLKIRRVEAEDLGVYFCSQSTHVPYTFGGGTKLEIK
notes: 'chim' is the pre-humanized form (parental variable regions); also called pre-humanized (chimeric) form of AB4
Turning to B4, the FACS fluorescence in experiment [4] came out at 327000; in experiment [5] it was 19100; in [6], 3640; in experiment [7], 176000; in [8], 38400; in experiment [9] it was 64800.

B5: AB12 (antibody, V domains shown)
VH: EVKLMESGGDLVKPGGSLKLSCAASGFTFSSYAMSWVRQTPEKRLEWVASIRSGGTTYYPDSVKGRFTISRDNARNILYLRMSSLRSEDTAIYYCAKVGGNPYPMDYWGQGTSVTVSS
VL: DIQMIQSPSSMFASLGDRVSLSCRASQDIGGNLDWYQQKPGGTIKLLIYSTSNLNSGVPSRFSGSGSGSDYSLTITSLESEDFADYYCLQRNAYPLTFGAGTKLELK
notes: as for B1
B5: the EC50 in experiment [1] is 1300 nM; in experiment [2], 2290 nM; in experiment [3], not below 5000 nM.

B6: AB18 (antibody, V domains shown)
VH: QVQLKQSGPELEKPGASVKISCKASGYSFTGYNMNWVKQSNGKSLEWIGNIDPYYGGSTYNQKFTGKATLTVDKSSSTAYMQLKSLTSEDSAVYYCARERSGYVFSAMDYWGQGTSVTVSS
VL: NIMMTQSPSSLAVSAGEKVTMSCKSSQSVLFSSNQKNYLAWYQQKPGQSPRLLIYWASTRESGVPDRFTGSGSGTDFTLTISNVQAEDLAVYYCHQYLSSRTFGAGTKLELK
notes: as for B1
In the case of B6, the 50% effective concentration (EC50) is 1350 nM in experiment [1], 2440 nM in experiment [2] and not below 5000 nM in experiment [3].

B7: AB14 (antibody, V domains shown)
VH: QVQLQQSGPELVRPGVSVKISCKGSGYTFTDYAMHWVKQSHAKSLEWIGVISTYSGNTNYNQKFQDKATMTVDKSSSTAYMALARLTSDDSAIYYCARRGDYSLYAMDYWGQGTSVTVSS
VL: DIVLTQSPASLAVSLGQRATISCKASQSVDYDGDNYVNWYQQKVGQPPKLLISAASNLESGIPARFSGSGSGTDFTLNIHPVEEEDAATYYCQQSNEDPFTFGSGTKLEIK
notes: as for B1
Take B7: the EC50 in [1] was 1300 nM; in experiment [2], 1660 nM; in experiment [3], not below 5000 nM.

B8: AB13 (antibody, V domains shown)
VH: QVQLQQSGAELVRPGTSVKVSCKASGYAFSNYLIEWVKQRPGQGLEWIGVINPGSGGTNYNEKFKGKATMTADKSSSTAYMHLSNLTSEDSVVYFCARSYFGRSYPYTMDYWGQGTSVTVSS
VL: EIVLTQSPTTMAASPGEKITITCSASSSISSNYLHWYQQKPGFSPKLLIYRTSNLASGVPARFSGSGSGTSYSLTIGTMEAEDVATYYCQQGSSIPLTFGAGTKLELK
notes: as for B1
For B8, the 50% effective concentration (EC50) in experiment [1] is 1150 nM; in experiment [2], 2290 nM; in experiment [3], not below 5000 nM.

The values above are taken from patent US20250333501A1 (University of California, published 2025).
